This is an account of results in patent US20040033566A1.

One test has as its target factor X (UniProt P00742). The test can be described thus: cell-based or functional assay.
In another test the target is VIIaGln298 (human) (UniProt P08709). In words: cell-based or functional assay.
Test [1] has as its target wild-type VIIa in complex with TF1-218 (human) (UniProt P08709). The test can be described thus: cell-based or functional assay.
The target of test [2] is VIIaGln298 in complex with TF1-218 (human) (UniProt P08709). In words: cell-based or functional assay.
Test [3] concerns the target full-length recombinant human tissue factor (human) (UniProt P13726). In words: SPR, full-length TF captured by TF9-10H10, VIIa premixed with 10 µM 5L15.

Chain of UniProt P00742 (P00742 41-488 limits assumed): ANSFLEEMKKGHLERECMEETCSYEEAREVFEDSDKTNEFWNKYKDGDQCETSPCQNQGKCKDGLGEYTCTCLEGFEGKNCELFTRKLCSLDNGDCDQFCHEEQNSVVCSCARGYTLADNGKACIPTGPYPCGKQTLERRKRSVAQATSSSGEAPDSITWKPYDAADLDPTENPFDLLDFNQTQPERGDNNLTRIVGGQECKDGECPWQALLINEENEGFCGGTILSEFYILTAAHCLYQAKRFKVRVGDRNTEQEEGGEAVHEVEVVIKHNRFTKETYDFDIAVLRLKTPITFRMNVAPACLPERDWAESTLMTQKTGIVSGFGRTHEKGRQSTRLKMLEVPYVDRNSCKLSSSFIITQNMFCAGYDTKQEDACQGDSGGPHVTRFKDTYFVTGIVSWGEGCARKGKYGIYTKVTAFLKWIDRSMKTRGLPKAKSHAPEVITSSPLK

“VIIaGln298 bound to phospholipid reconstituted T.F. (from UniProt P08709 61-212; P08709 213-466; P13726 33-295)”: the KM (nM) of factor X activation by VIIa bound to phospholipid reconstituted T.F. with factor X came to 68 nM.
Take “antithrombin III (from UniProt P01008 33-464)”: in the test with VIIaGln298 (human), the time to 50% inhibition of amidolytic activity of free VIIa by 0.5 µM antithrombin III with 5 U/ml heparin was 31 min. The values for the time to 50% inhibition of amidolytic activity of T.F.-VIIa complex by 0.5 µM antithrombin III with 5 U/ml heparin in test [1] and in test [2] were 6 min and 4.5 min, respectively.
As to “wild-type VIIa bound to phospholipid reconstituted T.F. (from UniProt P08709 61-212; P08709 213-466; P13726 33-295)”, in the test with factor X, the KM (nM) of factor X activation by VIIa bound to phospholipid reconstituted T.F. amounted to 61 nM.
In the case of “wild-type VIIa premixed with 10 µM 5L15 (from UniProt P08709 61-212; P08709 213-466)”, in test [3], the Kd worked out at 0.8 nM.
